Source: paper PMC6079011, “Salvage of the 5-deoxyribose byproduct of radical SAM enzymes” (Nature Communications, 2018)

Tests used:
[1] = target: B. thuringiensis 5-deoxyribose disposal isomerase DrdI, His6-tagged (Bacillus thuringiensis HD73-20 (BGSC 4D22)); experiment: SEC; native molecular mass estimated on a Superdex 200 column, eluted with 50 mM HEPES-KOH, 50 mM KCl, pH 7.5, 10% glycerol
DEP1 (AtDEP1) = target: T1, DEP1 (AtDEP1) (Arabidopsis thaliana, UniProt Q9FN41); experiment: coupled glycerol-3-phosphate dehydrogenase NADH assay; assay type: biochemical; conditions: aldol cleavage, 500 µM dRu1P, pH 8.2, 21 °C
T1 construct: gene At5g53850; C-terminal His6-tag, from cDNA clone, expressed in E. coli BL21 CodonPlus (DE3)-RIPL; class II aldolase fused to HAD phosphatase domain
T1 sequence (Q9FN41 2-507): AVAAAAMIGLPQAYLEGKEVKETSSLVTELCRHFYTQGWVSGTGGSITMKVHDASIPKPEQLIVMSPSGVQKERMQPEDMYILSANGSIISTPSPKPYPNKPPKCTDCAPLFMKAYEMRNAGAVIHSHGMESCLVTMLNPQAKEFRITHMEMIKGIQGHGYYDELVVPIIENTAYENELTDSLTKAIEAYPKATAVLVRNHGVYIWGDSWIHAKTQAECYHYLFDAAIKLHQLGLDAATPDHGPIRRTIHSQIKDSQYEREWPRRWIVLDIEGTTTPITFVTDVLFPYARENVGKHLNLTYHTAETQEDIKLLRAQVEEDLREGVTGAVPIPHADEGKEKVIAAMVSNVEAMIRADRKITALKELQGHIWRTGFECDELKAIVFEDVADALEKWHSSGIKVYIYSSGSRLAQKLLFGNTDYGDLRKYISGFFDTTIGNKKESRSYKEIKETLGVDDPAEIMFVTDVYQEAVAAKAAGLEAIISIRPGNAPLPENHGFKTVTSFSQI

DrdA (aldolase) = DrdA (aldolase) (Bacillus thuringiensis, UniProt P0DTQ0); conditions: tag-free protein, Mn2+ site, co-crystallised with 20 equivalents DHAP, pH 7.5
[2] = target: the molecule itself; experiment: crystal structure; X-ray, 1.55 Å, space group P42(1)2, one monomer per asymmetric unit; crystals from 200 mM NaCl, 28% PEG-3350, 100 mM HEPES-KOH pH 7.5, 20 °C
[3] = target: the molecule itself; experiment: SEC; native molecular mass estimated on a Superdex 200 column, eluted with 50 mM HEPES-KOH, 50 mM KCl, pH 7.5, 10% glycerol
[4] = substrate: Nc1ncnc2c1ncn2[C@@H]1O[C@H](COP(=O)(O)OP(=O)(O)OP(=O)(O)O)[C@@H](O)[C@H]1O; experiment: coupled pyruvate kinase/lactate dehydrogenase NADH assay; assay type: biochemical, Bacillus thuringiensis; conditions: co-substrate 5-deoxyribose (500 µM), Mg2+, pH 8.0, 21 °C
From the text: coupled pyruvate kinase/lactate dehydrogenase NADH assay on DrdK (kinase)

[5] = substrate: C[C@H]1O[C@H](OP(=O)(O)O)[C@H](O)[C@@H]1O; experiment: coupled DrdA/glycerol-3-phosphate dehydrogenase NADH assay; assay type: biochemical, Bacillus thuringiensis; conditions: pH 8.0, 21 °C
From the text: coupled DrdA/glycerol-3-phosphate dehydrogenase NADH assay on DrdI (isomerase)

For “B. thuringiensis 5-deoxyribose disposal isomerase DrdI, His6-tagged (enzyme)”, the stoichiometry N [1] was 2.

For `C[C@@H](O)[C@@H](O)C(=O)COP(=O)(O)O` [5-deoxyribulose 1-phosphate], the “coupled glycerol-3-phosphate dehydrogenase NADH assay” value (DEP1 (AtDEP1)) was “Recombinant DEP1 showed aldolase activity towards 5-deoxyribulose-1-phosphate”.

For `O=C(CO)COP(=O)(O)O` [dihydroxyacetone phosphate], the “X-ray crystal structure of complex” value (DrdA (aldolase)) was “we solved the co-complex structure of DHAP bound to DrdA”.

B1: B. thuringiensis aldolase DrdA, tag-free variant (enzyme)
chain: MLLQKEREEIVAYGKKMISSGLTKGTGGNISIFNREQGLVAISPSGLEYYETKPEDVVILNLDGEVIEGERKPSSELDMHLIYYRKREDINALVHTHSPYAKTIASLGWELPAVSYLIAFAGPNVRCAPYETFGTKQLADAAFEGMIDRRAVLLANHGLIAGANNIKMAFTVAEEIEFCAQIYYQTKSIGEPKLLPEDEMENLAKKFEGYGQQ
notes: also called tag-free version; His-tag-free protein; source: E. coli BL21(DE3), purified (ammonium sulfate precipitation, MonoQ anion exchange, Superdex 200 SEC)
In the case of B1, the “stoichiometry N” value [2] is reported as 4.

B2: B. thuringiensis 5-deoxyribose disposal kinase DrdK, His6-tagged (enzyme, UniProt P0DTQ2 1-409, looked up)
chain: MSKFTKYFLMEASDVIAYVKEKLSKFEHAKGLKCKEIGDGNLNYVFRVWDKKENMSVIVKQAGDTARISDEFKLSTNRIRIESDVLQLENELAPGLVPKVYLFDSVMNCCVMEDLSNHTILRTALINHQIFPQLADDLTTFMVNTLLLTSDVVMNHKEKKELVKNYINPELCEITEDLVYSEPFTNHNKRNELFPLNEGWIREHIYSDKELRMEVAKRKFSFMTNAQALLHGDLHTGSVFVRDDSTKVIDPEFAFYGPMGYDVGNVMANLMFAWVNADATMPPGAEKDTYMDWLQTTMVEVIDLFKKKFLDAWDIHVTEIMAKEEGFNEVYLQSVLEDTAAVTGLELIRRIVGLAKVKDITCIENEEARARAEQICLKVAKSFILRANQYRTGRSFVETLKEQSMHYAE
notes: Cloned into pET28b (XbaI/XhoI amplicon into NheI/XhoI); No step that removes the tag is described; also called 5-deoxyribose kinase; source: E. coli BL21 CodonPlus (DE3)-RIPL, purified (Ni-NTA)
B2 was tested, and the “stoichiometry N” value [3] was 2, the Km [4] was 216 ± 63 µM and the kcat [4] was 17.1 ± 2.5 s⁻¹. The kcat/Km [4] was 79000 ± 26000 M⁻¹ s⁻¹.

B3: DrdI (isomerase) (Bacillus thuringiensis serovar kurstaki str. HD73) (protein)
chain: MMEEQLIPIQWKDDALVLLDQTLLPNEIVYESFKTAESVWDAIQVMKVRGAPVIGVSAAYGVYLGVKEFAESTEEGFMDEVRKVCTYLATSRPTAVNLFWALERMESVAADNIHLSISQLKDRLLEEAKEIHREDEEINRQIGEHALTLFHDGMGVLTHCNAGALATTKYGTATAPMYLAKEKGWDLKIFSDETRPRLQGSTLTALELQRAGIDVTVITDNMAAMVMSQGKIDAVIVGCDRVAANGDIANKIGTLGVSILAKYYNIPFYVAAPTPTIDLKTPTGKEIPIEERDASEVINRFGQYSAPKESKVYNPAFDVTPHENVTAIITEKGIVKAPFTENLKKIFQ
notes: full length, N-terminal His6-tag with short linker, expressed in E. coli BL21 CodonPlus (DE3)-RIPL; dimer
In the case of B3, the Km [5] is reported as 22 ± 7 × 10^3 µM, the kcat [5] is reported as 3.5 ± 0.7 s⁻¹ and the kcat/Km [5] is reported as 160 ± 60 M⁻¹ s⁻¹.
